Measured values as given in the Immune Epitope Database (IEDB).
One block for each sequence: values may come before it.

Tests used:
HLA-A*02:01 [1] = experiment: IEDB peptide-MHC binding, purified MHC/direct/fluorescence; filed as Kd, often an IC50 or EC50 that approximates it; ≥ and ≤ were set here for values at or beyond the usual limits of such assays
HLA-B*53:01 = experiment: IEDB peptide-MHC binding, purified MHC/competitive/radioactivity; filed as Kd, often an IC50 or EC50 that approximates it; ≥ and ≤ were set here for values at or beyond the usual limits of such assays
HLA-A*01:01 [2] = experiment: as above
HLA-A*24:02 = experiment: as above
HLA-A*01:01 [3] = experiment: IEDB peptide-MHC binding, purified MHC/direct/fluorescence; filed as Kd, often an IC50 or EC50 that approximates it; ≥ and ≤ were set here for values at or beyond the usual limits of such assays
HLA-A*31:01 [4] = experiment: as above
HLA-A*03:01 = experiment: as above; conditions: source organism: Pseudomonas aeruginosa UCBPP-PA14
HLA-A*02:01 [5] = experiment: IEDB peptide-MHC binding, purified MHC/competitive/fluorescence; ≥ and ≤ were set here for values at or beyond the usual limits of such assays
HLA-B*44:02 = experiment: IEDB peptide-MHC binding, purified MHC/competitive/radioactivity; filed as Kd, often an IC50 or EC50 that approximates it; ≥ and ≤ were set here for values at or beyond the usual limits of such assays
HLA-B*07:02 = experiment: IEDB peptide-MHC binding, purified MHC/direct/fluorescence; filed as Kd, often an IC50 or EC50 that approximates it; ≥ and ≤ were set here for values at or beyond the usual limits of such assays
HLA-A*30:02 = experiment: IEDB peptide-MHC binding, purified MHC/competitive/radioactivity; filed as Kd, often an IC50 or EC50 that approximates it; ≥ and ≤ were set here for values at or beyond the usual limits of such assays
HLA-B*40:01 [6] = experiment: IEDB peptide-MHC binding, purified MHC/direct/fluorescence; filed as Kd, often an IC50 or EC50 that approximates it; ≥ and ≤ were set here for values at or beyond the usual limits of such assays; conditions: source organism: Haemophilus influenzae
HLA-A*69:01 = experiment: as above
HLA-A*26:01 = experiment: IEDB peptide-MHC binding, purified MHC/competitive/radioactivity; filed as Kd, often an IC50 or EC50 that approximates it; ≥ and ≤ were set here for values at or beyond the usual limits of such assays
HLA-B*40:01 [7] = experiment: as above
HLA-B*58:01 = experiment: IEDB peptide-MHC binding, purified MHC/direct/fluorescence; filed as Kd, often an IC50 or EC50 that approximates it; ≥ and ≤ were set here for values at or beyond the usual limits of such assays; conditions: source organism: Human immunodeficiency virus 1
HLA-A*31:01 [8] = experiment: IEDB peptide-MHC binding, purified MHC/competitive/radioactivity; filed as Kd, often an IC50 or EC50 that approximates it; ≥ and ≤ were set here for values at or beyond the usual limits of such assays; conditions: source organism: Dengue virus 2 Jamaica/1409/1983
HLA-A*33:01 = experiment: as above; conditions: source organism: Dengue virus 2 Jamaica/1409/1983
HLA-A*68:01 = experiment: as above; conditions: source organism: Dengue virus 2 Jamaica/1409/1983
HLA-A*02:03 = experiment: as above
HLA-A*02:02 = experiment: as above
HLA-A*02:06 = experiment: as above
HLA-A*11:01 = experiment: IEDB peptide-MHC binding, purified MHC/direct/fluorescence; filed as Kd, often an IC50 or EC50 that approximates it; ≥ and ≤ were set here for values at or beyond the usual limits of such assays; conditions: source organism: Yellow fever virus 17D
[9] = source organism: Dengue virus 3 Martinique/1243/1999
[10] = source organism: Dengue virus 1 Brazil/97-11/1997
[11] = source organism: Zaire ebolavirus
[12] = source organism: Dengue virus 2 Jamaica/1409/1983
[13] = source organism: Vaccinia virus
[14] = source organism: Sudan ebolavirus
[15] = source organism: Haemophilus influenzae
[16] = source organism: Mammarenavirus caliense
[17] = source organism: Dengue virus 4 Philippines/H241/1956
[18] = source organism: Vaccinia virus WR
[19] = source organism: Bacillus anthracis
[20] = source organism: Mammarenavirus guanaritoense

Sequence: LLMEGLKLL
Kd (HLA-A*02:01 [1]; source organism: Mammarenavirus lassaense): ≤ 1 nM

Sequence: LPLFIFSLKD
Kd (HLA-B*53:01; [9]): 2920 nM

Sequence: LTEFQPHQL
Kd (HLA-A*01:01 [2]; [10]): 8760 nM

Sequence: LTEFQPHQLW
Kd (HLA-B*53:01; [10]): 990 nM
Kd (HLA-A*01:01 [2]; [10]): 12900 nM

Sequence: LYAVATTFIT
Kd (HLA-A*24:02; source organism: Dengue virus 2 Peru/IQT2913/1996): ≥ 23500 nM

Sequence: MASTPASRY
Kd (HLA-A*01:01 [3]; source organism: Influenza A virus (A/Fujian/411/02-like(H3N2))): ≥ 20000 nM

Sequence: MTTEDMLTVW
Kd (HLA-B*53:01; [9]): 122 nM

Kd (HLA-A*31:01 [4]; source organism: Pseudomonas aeruginosa UCBPP-PA14): 251 nM
Kd (HLA-A*03:01): ≥ 20000 nM
Sequence: MVTGGIRRR

Sequence: NAGQFLSFA
IC50 (HLA-A*02:01 [5]; [11]): ≥ 121000 nM

Sequence: NEMVLLQME
Kd (HLA-B*44:02; [12]): 907 nM

Sequence: NLSPETLVG
IC50 (HLA-A*02:01 [5]; [13]): ≥ 170000 nM

Sequence: NLTYVQLES
IC50 (HLA-A*02:01 [5]; [11]): 11000 nM

Sequence: NPAVLRKLCI
Kd (HLA-B*53:01; [10]): 5200 nM

Sequence: NPQKENDQY
Kd (HLA-B*53:01; [9]): 2080 nM

Sequence: NPTVDGITVI
Kd (HLA-B*53:01; [12]): 2510 nM

Sequence: NPVPVGNIY
Kd (HLA-B*07:02; source organism: Human immunodeficiency virus type 2 (ISOLATE D205,7)): ≥ 40300 nM

Sequence: QIPSSSPTT
IC50 (HLA-A*02:01 [5]; [14]): 42800 nM

Sequence: QLSKSEFNTY
Kd (HLA-A*01:01 [2]; [10]): 1390 nM
Kd (HLA-A*30:02; [10]): 71.1 nM

Kd (HLA-A*31:01 [4]; [15]): 924 nM
Kd (HLA-B*40:01 [6]): 227 nM
Kd (HLA-A*69:01; [15]): 337 nM
Sequence: RFEAYGWQV

Sequence: RNPQKENDQY
Kd (HLA-A*30:02; [9]): ≥ 69700 nM

Sequence: RPEAAAGQL
Kd (HLA-B*07:02; source organism: Mycobacterium tuberculosis variant bovis BCG str. Pasteur 1173P2): 179 nM

Sequence: RTPQDNQLAY
Kd (HLA-A*01:01 [2]; [10]): 703 nM
Kd (HLA-A*30:02; [10]): 267 nM

Sequence: SEFKSRFFIW
Kd (HLA-A*01:01 [2]; [16]): 2210 nM
Kd (HLA-A*26:01; [16]): ≥ 69700 nM
Kd (HLA-A*30:02; [16]): 7480 nM

Sequence: SELPETLETL
Kd (HLA-B*40:01 [7]; [12]): 7.2 nM

Sequence: SFTVVSNGA
IC50 (HLA-A*02:01 [5]; [11]): ≥ 372000 nM

Sequence: SLEKAAEVSW
Kd (HLA-B*44:02; [10]): 174 nM

Sequence: SLIPDATHL
Kd (HLA-A*02:01 [1]; source organism: Lassa virus Josiah): 18.1 nM

Sequence: SPSKRNQTF
Kd (HLA-B*07:02; source organism: Mammarenavirus amapariense): 66.8 nM

Sequence: SRKTFDSEY
Kd (HLA-A*30:02; [12]): 3810 nM

Sequence: STESHNQTF
Kd (HLA-A*01:01 [2]; [12]): 8210 nM

Sequence: TAVPWNASW
Kd (HLA-B*58:01): 13 nM

Sequence: TLAGVNVGE
IC50 (HLA-A*02:01 [5]; [11]): ≥ 211000 nM

Sequence: TQSRPIQNV
IC50 (HLA-A*02:01 [5]; [11]): 14600 nM

Sequence: TTDISEMGA
Kd (HLA-A*01:01 [2]; [17]): 188 nM

Sequence: TTQDEGAAI
IC50 (HLA-A*02:01 [5]; [11]): ≥ 220000 nM

Sequence: TVMDIISRR
Kd (HLA-A*31:01 [8]): 17.9 nM
Kd (HLA-A*33:01): 11.1 nM
Kd (HLA-A*26:01; [12]): 2710 nM
Kd (HLA-A*68:01): 3.87 nM

Sequence: TWHYDEDNPY
Kd (HLA-A*30:02; [10]): 3070 nM

Sequence: TWPKSHTLW
Kd (HLA-A*24:02; [9]): 39.8 nM

Sequence: TYGLNTFTN
Kd (HLA-A*24:02; [12]): 1590 nM

Kd (HLA-A*24:02; source organism: Homo sapiens): 149 nM
Sequence: VAELVHFLL

Sequence: VAGGLLLAAY
Kd (HLA-A*30:02; [17]): 78.7 nM

Sequence: VAIDLDPVVY
Kd (HLA-A*01:01 [2]; [10]): ≥ 33400 nM
Kd (HLA-A*30:02; [10]): 825 nM

Sequence: VDLHPASAW
Kd (HLA-B*44:02; [10]): 80.2 nM

Sequence: VEDYGFGMF
Kd (HLA-B*40:01 [7]; [17]): 965 nM

Sequence: VILSLPRIA
IC50 (HLA-A*02:01 [5]; source organism: Variola virus): 1390 nM

Sequence: VIRHVDGKIL
Kd (HLA-A*02:03; [18]): ≥ 33400 nM
Kd (HLA-A*02:02; [18]): ≥ 70000 nM
Kd (HLA-A*02:06; [18]): ≥ 69800 nM

Sequence: VLNGAELSN
IC50 (HLA-A*02:01 [5]; [13]): ≥ 114000 nM

Sequence: VLRGNRQGL
Kd (HLA-A*02:01 [1]; [19]): 4460 nM
Kd (HLA-A*69:01; [19]): ≥ 20000 nM

Sequence: VLWDIPTPK
Kd (HLA-A*11:01): 4.4 nM

Sequence: VTNSTLEVT
IC50 (HLA-A*02:01 [5]; [14]): ≥ 122000 nM

Sequence: VYTQLCDHRL
Kd (HLA-A*24:02; [9]): 6.35 nM

Sequence: WSAIFFTTSL
Kd (HLA-A*02:03; [20]): 6990 nM
Kd (HLA-A*02:02; [20]): 2000 nM
Kd (HLA-A*02:06; [20]): 1400 nM

Sequence: YENLKYSVIV
Kd (HLA-B*40:01 [7]; [10]): 70.6 nM

Kd (HLA-A*01:01 [2]; source organism: Homo sapiens): 90 nM
Sequence: YVDFREYEYD

Kd (HLA-A*01:01 [3]; source organism: Homo sapiens): 92.3 nM
Kd (HLA-A*69:01; source organism: Homo sapiens): 2000 nM
Sequence: YVDHYYRDY
